Bridge positions count the residues as written; N and C are the ends. Square brackets hold non-standard residues; d marks the D form. Primed or numbered codes have the meaning given here. Ends that are not written are not given here. * marks the point of attachment. Man9GlcNAc2 = CC(=O)N[C@@H]1[C@@H](O)[C@H](O[C@@H]2O[C@H](CO)[C@@H](O[C@@H]3O[C@H](CO[C@H]4O[C@H](CO[C@H]5O[C@H](CO)[C@@H](O)[C@H](O)[C@@H]5O[C@H]5O[C@H](CO)[C@@H](O)[C@H](O)[C@@H]5O)[C@@H](O)[C@H](O[C@H]5O[C@H](CO)[C@@H](O)[C@H](O)[C@@H]5O[C@H]5O[C@H](CO)[C@@H](O)[C@H](O)[C@@H]5O)[C@@H]4O)[C@@H](O)[C@H](O[C@H]4O[C@H](CO)[C@@H](O)[C@H](O)[C@@H]4O[C@H]4O[C@H](CO)[C@@H](O)[C@H](O)[C@@H]4O[C@H]4O[C@H](CO)[C@@H](O)[C@H](O)[C@@H]4O)[C@@H]3O)[C@H](O)[C@H]2NC(C)=O)[C@@H](CO)O[C@H]1*; Hpra′ = its azide, alkyne or alkene has reacted where a group follows in round brackets
B1: acyclic H1 variant (peptide 7) (peptide)
chain: YTEKHNGIGDIRPAIC(iodoacetamide)[Hpra′](Man9GlcNAc2)NSKNQNHRC(iodoacetamide)NHYQIKLYIH[Hpra′](Man9GlcNAc2)L[Hpra′](Man9GlcNAc2)RLPHNYRNS
modifications: not fully specified (C-terminus); also: Man9GlcNAc2 attached by CuAAC, biotin on the C-terminal lysine (no K at C-terminus of given chain)
B2: gl-PGT121 (protein)
chain 1: SYVLTQPPSVSVAPGQTARITCGGNNIGSKSVHWYQQKPGQAPVLVVYDDSDRPSGIPERFSGSNSGNTATLTISRVEAGDEADYYCQVWDSSSDHPWVFGGGTKLTVLGQPKAAPSVTLFPPSSEELQANKATLVCLISDFYPGAVTVAWKADSSPVKAGVETTTPSKQSNNKYAASSYLSLTPEQWKSHRSYSCQVTHEGSTVEKTVAPTECS
chain 2: QVQLQESGPGLVKPSETLSLTCTVSGGSISSYYWSWIRQPPGKGLEWIGYIYYSGSTNYNPSLKSRVTISVDTSKNQFSLKLSSVTAADTAVYYCARTQQGKRIYGVVSFGDYYYYYYMDVWGKGTTVTVSSASTKGPSVFPLAPSSKSTSGGTAALGCLVKDYFPEPVTVSWNSGALTSGVHTFPAVLQSSGLYSLSSVVTVPSSSLGTQTYICNVNHKPSNTKVDKRVEPKSCDKTHHHHHH
B3: m2 (protein)
chain 1: QVHLQESGPGLVKPSETLSLTCNVSGTLVRDNYWSWIRQPLGKQPEWIGYVHDSGDTNYNPSLKSRVHLSLDKSKNLVSLRLTGVTAADSAIYYCATTKHGRRIYGVVAFKEWFTYFYMDVWGKGTSVTVSS
chain 2: APTFVSVAPGQTARITCGEESLGSRSVIWYQQRPGQAPSLIIYNNNDRPSGIPDRFSGSPGSTFGTTATLTITSVEAGDEADYYCHIWDSRRPTNWVFGEGTTLIVL
B4: PGT128 (antibody, V domains shown)
VH: QPQLQESGPTLVEASETLSLTCAVSGDSTAACNSFWGWVRQPPGKGLEWVGSLSHCASYWNRGWTYHNPSLKSRLTLALDTPKNLVFLKLNSVTAADTATYYCARFGGEVLRYTDWPKPAWVDLWGRGTLVTVSS
VL: QSALTQPPSASGSPGQSITISCTGTSNNFVSWYQQHAGKAPKLVIYDVNKRPSGVPDRFSGSKSGNTASLTVSGLQTDDEAVYYCGSLVGNWDVIFGGGTKLTVL
B5: L1 glycopeptide (peptide 8) (peptide)
chain: SIKLINQ[Hpra′](Man9GlcNAc2)[Hpra′](Man9GlcNAc2)TTNPHLRLHIGDIRRLIKDLY[Hpra′](Man9GlcNAc2)FRVYYRPTNSGRRLFVN
modifications: not fully specified (C-terminus); also: Man9GlcNAc2 attached by CuAAC, biotin on the C-terminal lysine (no K at C-terminus of given chain)
B6: H1 mutant with IGDIR changed to IAAIA (peptide 5) (peptide)
chain: YTEKHNGIAAIAPAIC[Hpra′](Man9GlcNAc2)NSKNQNHRCNHYQIKLYIH[Hpra′](Man9GlcNAc2)L[Hpra′](Man9GlcNAc2)RLPHNYRNS
modifications: not fully specified (C-terminus); cysteine pairing not given here; also: Man9GlcNAc2 attached by CuAAC, biotin on the C-terminal lysine (no K at C-terminus of given chain)
B7: H1 glycopeptide (peptide 1) (peptide)
chain: YTEKHNGIGDIRPAIC[Hpra′](Man9GlcNAc2)NSKNQNHRCNHYQIKLYIH[Hpra′](Man9GlcNAc2)L[Hpra′](Man9GlcNAc2)RLPHNYRNS
modifications: linker 16-26 via m‑dibromoxylene (inferred); not fully specified (C-terminus); also: Man9GlcNAc2 attached by CuAAC, biotin on the C-terminal lysine (no K at C-terminus of given chain)
B8: H22 glycopeptide (peptide 2) (peptide)
chain: LFKPYPKIGDIRKARC[Hpra′](Man9GlcNAc2)LQHTLHHRTNKQPSYRRRLKTLIPLFRRC[Hpra′](Man9GlcNAc2)L
modifications: not fully specified (C-terminus); cysteine pairing not given here; also: Man9GlcNAc2 attached by CuAAC, biotin on the C-terminal lysine (no K at C-terminus of given chain)

Assays:
Assay in all cases: BLI
PGT128 [1] = target: B4
m14 = target: m14
[2] = target: GB1R-non-glycosylated peptide (12)
m13 = target: m13
m12 = target: m12
[3] = target: random scrambled version of the H1 sequence containing three glycans and cyclization (peptide 6) (three Man9GlcNAc2 glycans attached by CuAAC on homopropargylglycine (printed as M); cyclized; biotin on the C-terminal lysine)
[4] = target: H1 mutant without the glycans at the second and third glycosylation sites (peptide 4) (Man9GlcNAc2 by CuAAC on homopropargylglycine at the first glycosylation site only; biotin on the C-terminal lysine)
[5] = target: H1 mutant without the glycan at the first of the three glycosylation sites (peptide 3) (Man9GlcNAc2 by CuAAC on homopropargylglycine at the second and third glycosylation sites only; biotin on the C-terminal lysine)
PGT128 [6] = target: B4; remark: listed apart in the source

B1
koff (PGT128 [1]): 0.00616 s⁻¹

B2
Kd (m14): 570 nM
koff (m14): 0.00262 s⁻¹
Kd [2]: 710 nM
koff [2]: 0.00199 s⁻¹

B3
koff (m13): 0.000202 s⁻¹
koff (m12): 0.000802 s⁻¹

B4
koff [3]: 0.0132 s⁻¹
Kd [4]: 21.1 nM
koff [4]: 0.00221 s⁻¹
Kd [5]: 0.94 nM
koff [5]: 5.6e-05 s⁻¹

B5
koff (PGT128 [1]): 0.000645 s⁻¹

B6
koff (PGT128 [1]): 0.00212 s⁻¹
Kd (PGT128 [6]): 12.4 nM

B7
koff (PGT128 [1]): 6.3e-05 s⁻¹

B8
koff (PGT128 [1]): 0.00635 s⁻¹
